Assay: Solubility of P-1 in water and THF
Type: physicochemical
Details: method not described

In the case of `O=C(O)[C@H](Cc1ccccc1)NC(=O)[C@H](Cc1ccccc1)N1C(=O)c2ccc3c4ccc5c6c(ccc(c7ccc(c2c37)C1=O)c64)C(=O)N([C@@H](Cc1ccccc1)C(=O)N[C@@H](Cc1ccccc1)C(=O)O)C5=O` [P-1], the “solubility in THF” value (THF (good solvent)) is reported as ~ 0.1 mM and the solubility (water (poor solvent)) is reported as less than 0.1 µM.
